Source: the DeepSol protein solubility set

Assay: soluble on expression in E. coli; label from the status in PepcDB or PDB records

Question: With “MLRALRGAADLLSTALYKNEMMMSRRYLSTPAPEPAKPSSEETTESTEPATSVEDAGEPMKEKRITQPYSSEALTKLKLDQYPLYVEREWWKTGKRMTFWASWRQLRDVKRREQIQEVGADRMRLKAIKFNTILPQAIRDEAAEKMQKARKYDHPRLILNMCQFTGRQRGKIKPYRLSRHLFRRFADRSALSGVQRAMW” as the sequence, how does the “soluble on expression in E. coli” value read?
Answer: The value was “not soluble”.

Question: Which “soluble on expression in E. coli” value does the source give for “MSLIKLVAIDLDGTLLNSQKEISLRNKQALMAAKQAGVKVVICTGRPLAAIGPYLEELGLQDEGDYSITFNGGLVQKNDTGAIIEKTLMPLEAIHELYQLATTLNMPFDVLSDEVVMQLPSAPNYPSIYSSLNKLLTFESYKLEELTPNRIYNKVVVAIDEAYLNERIKEIPASFYERFEIIKTRNNLLEFMPKGITKAYGISLLAKDLGIRAEEIMTLGDEENDLPMIEYAGLGVAMANAIPLVKEAADVVTDTNDQDGVAKAVEKYILTPLEGGEGHHHHHH” here?
Answer: The value was “soluble”.

Question: For “MGSDKIHHHHHHMVLLDYHMHSLNSTDAHDEISALCAKAIARGLQEIAVTDHFEPSAGHEEYSEYDGRKYFTEIAEARRRFAGKLSIKSGVELGQPHLFPKYSLQLLEEYPYDYVLGSAHRMPNNVDFGEVRYTPENLAAYCASYLTELKALAQWGHYDCLGHLDLVKRYAAKYRLRANLMDYQEQLAEILRIVIDKGKGIEVNTSGLRQSSQECLPDLDIIRLYKELGGEIITVGSDAHWAEDVGKGIQEGLERLKKAGFKYVSVYTNRQPAMIKIGDKSALFTRGGLSA”, which “soluble on expression in E. coli” value is on record?
Answer: Its value is “not soluble”.

Question: With “GPGSMVLIECKRLPKDEYSKDYDVFLVSIPGVTNIGEATDVLQQMRNTRVRIKWMMAAAKQLAKDFCSEEQQHHLLGPVADAERYMSLERAERRLTCTQKELDDLVDAFKGGAMILFPAECSGTDAVKRLAQLLDDDNTTDTERSKAHRLLSIIDDGATTEDILQGVATMWWSGKQLDRAADFTKYVGKNEKTKITVKLTAKDAPAPPREPALDAKAQSELMAYYFRKQEEMKKMIEDEDLSYGNSAWANPQGLKSQLHGFDSVKFKPG” as the sequence, how does the “soluble on expression in E. coli” value read?
Answer: The value was “soluble”.

Question: For “MGSDKIHHHHHHMTDKGKNDLTSKAKDKARGNPEKPPYWFEIIVSDPQKRTGDPGSSSGYVSYQISTKTNNTSFYDNRGDPESIIVVHRRYSDLLLLHDILLNRFPTCIIPPLPDKKVFQYIAGDRFSQRFTQKRCHSLQNFLRRVSLHPDLSQSKVFKTFLVSKDWESHRKVLQDSLQPNKDEVTDAFMNAFKTVHKQNEEFTEIREKSDKLDRTVTKIDKLFHKVVKKNDSMSEDYTKLGSNLQELQELVTGENEELAAKLKIFNEGVTQLSYGLQDLTKYLDYEYIVDLKDLEHYIDSMRQLIKLKDQKQIDYEELSDYLTRSIKEKNNLISGYGGSNFFANKLEELAGINQEASRREKINKLEGKITSLTGELENAKKVADGFEQECLKEIDHFESVKTAEIKKSLGSLADHHIEFYERILEAWEKVDDSL”, which “soluble on expression in E. coli” value is on record?
Answer: The value was “not soluble”.

Question: With “MIHVREFQASDSDVVLHLLDLKDIINSSSFSEKVFQLSESGDFLGLVAEANQSGKHQVVGCAFLRLLETISRGLHCQIEELAIDKAWLHQGVGKSLMETATSWAKERGVGDIYVDSPYASIAVKEGIDSVFVRDEVLEVAQQYEAEKEELQESLKKQYNTTISKLEKEYEAKKQQQDETIHNLQTQLEDATQYLEEQQAEENELLNIDPSSPRNHTGPYPRGRGFWGTLCFPIRKTCGPGSCLRLPSGPASVRGSTDRSN” as the sequence, how does the “soluble on expression in E. coli” value read?
Answer: Its value is “soluble”.

Question: With “MRWNRMNPFGSYKKVVSARSTLKEVLKKAQDGGIVSTAFIYGLENNLLDGVIVADNAGEFKAVPKVATTPEEVLEAAGTKYTVCPNISVLKSAVREYGCEKIGVVGTPCQVRAVRKLMKYPVGFRHVPDKIALIIGIFCMENFPYYGLKLIVEEHCGVKMEDVVKMDIGKGKFWVYTRWGETKAIKLKETHPYEQIACHVCTDYTAELADISTGSVGSPDGWSTVFIRTAKGEEIFNKMVEDGYLEVKPIEEVKPGLGLVEKLALQKKEKNMKEIEHRKELGLPIPYLEHHHHHH” as the sequence, how does the “soluble on expression in E. coli” value read?
Answer: Its value is “soluble”.

Question: For “MVAHSSVEGNQGIEDRQVSTEASSDVFQSQRSRPRQSTVAFQTHFKPFNYARDFKIISNTTSMLEESGFYWGPMTVEEAHLKLKKESVGTFLIRDSRQSDVFFTLSYKAQNGPVSIRINFKNSKFSLTGSKESFDSLFKLLEHYISSPKKGLIRPCRKEPVQSLQQLCRRQIMERCDGKDIDCIPVQPILKDFLHAFPHPL”, which “soluble on expression in E. coli” value is on record?
Answer: Its value is “not soluble”.

Question: For “MSLTDLKEVARLAGVSRATAARAFASPEVVRAETRERVFVAARELGFRPNRLGRQLRLQTTNLIGVIVPNLLNPVFAEQFQAMERAARARGYNLLLATTDYSAERESAVVEELLRQRVDGLVLTVTDAEHNRVLESLAIEDTPFVLAYHQTDNEEYSAVSVDNRAGMALATRYLIDAGHRCIAMVAGPVMQSDRARLRYEGYRDAMNEGGLEARPVIEMPAHTNADFAALKPLLRGPTAPSALVCSNDLLAISLIAELRRNGWGVPERLSVIGFDGIALGTQMHPTLCSVVQPIAELAHIVIDQLLARIAGAVPVSHCLPCHIRPGESTQPYKEMLHAQPEGHHHHHH”, which “soluble on expression in E. coli” value is on record?
Answer: The value was “soluble”.

Question: With “MAHHHHHHMKHIATQHHRGVVADPQPIHRNTRRAVKVQTRPRDQPRDREAVPADRDVRVRWKITLRAEQRVTKCVTGDDDVQRPHSGVRIAQQQQHGAVPPRASIERDVRHVARHRTNQHRQAHAAPAERHVAVAQPRQPAAHSLRNLGVHHVADALTNRRWRWCGRRWRWRWRRGQWRRASRHRRRDARIAVPSSSALALAANDRRRQRCKAVALLRALPARSNRRHVGDAVELQLCRRRQQTSRDRQAPSNEPVTGVNPR” as the sequence, how does the “soluble on expression in E. coli” value read?
Answer: The value was “not soluble”.

Question: For “MGSDKIHHHHHHMKKIPCVMMRGGTSRGAFLLAEHLPEDQTQRDKILMAIMGSGNDLEIDGIGGGNPLTSKVAIISRSSDPRADVDYLFAQVIVHEQRVDTTPNCGNMLSGVGAFAIENGLIAATSPVTRVRIRNVNTGTFIEADVQTPNGVVEYEGSARIDGVPGTAAPVALTFLNAAGTKTGKVFPTDNQIDYFDDVPVTCIDMAMPVVIIPAEYLGKTGYELPAELDADKALLARIESIRLQAGKAMGLGDVSNMVIPKPVLISPAQKGGAINVRYFMPHSCHRALAITGAIAISSSCALEGTVTRQIVPSVGYGNINIEHPSGALDVHLSNEGQDATTLRASVIRTTRKIFSGEVYLP”, which “soluble on expression in E. coli” value is on record?
Answer: Its value is “not soluble”.

Question: With “MSLRFALTPGEPAGIGPDLCLLLARSAQPHPLIAIASRTLLQERAGQLGLAIDLKDVSPAAWPERPAKAGQLYVWDTPLAAPVRPGQLDRANAAYVLETLTRAGQGCLDGHFAGMITAPVHKGVINEAGIPFSGHTEFLADLTHTAQVVMMLATRGLRVALATTHLPLREVADAISDERLTRVARILHADLRDKFGIAHPRILVCGLNPHAGEGGHLGREEIEVIEPCLERLRGEGLDLIGPLPADTLFTPKHLEHCDAVLAMYHDQGLPVLKYKGFGAAVNVTLGLPIIRTSVDHGTALDLAGSGRIDSGSLQVALETAYQMAASRC” as the sequence, how does the “soluble on expression in E. coli” value read?
Answer: The value was “soluble”.

Question: For “MRLDYWSDSSKPIQQQWRDYDEISDNFKKAVVAAEDGKFVHHHGFDWEGIQYALEKNEKSGEVVNGGSTISQQLAKNLFLYNQRSLIRKGQEAIATWMMERMWSKQRILEVYMNSVQFGDHLYGVEAASHYYFHRSAQNLTRDQAAFLAALLPNPKYYQENRNDPRFKFKKRFTLKYMRYSEIP”, which “soluble on expression in E. coli” value is on record?
Answer: The value was “not soluble”.

Question: With “MAHHHHHHMSSCKDSLSLMAMWGSIARFDPKHERSFEGPEKRLEVIMRVVDGTHVSGLLAHDDDVWQKVIDAICAHIVSREFNEYIRSYVLSESSLFVMKDRVILITCGTITLLNCVPLICEAVSTVCGEVEWVSFMHKNYSFPWEQKGPHLSMAEEFKTLRSHFPSGQPFIFGPIDSDHYFLYFHSDVVQPSCSDDAQLSMTMYGLDRNQTKHWYSDKMLPTGPETAVIREATGLSEVVDDSWILHDLQYEPCGYSINAIRGSEYQTIHITPEEHCSFASYETNTCALNYSKCICGVLRVFDPERFSVIVFIDPDSAVGKSYHSGGTIGVEPEYYPNYEAHHRTVNEYTPGHWVLKVNYVKRAVGTVGTSAASGAKE” as the sequence, how does the “soluble on expression in E. coli” value read?
Answer: The value was “not soluble”.

Question: Which “soluble on expression in E. coli” value does the source give for “MISNRILQTTVDGLKAISRVDLCIVDADKNVAAKTFDNVSECLADAISFIDSPAESQAVNGFQFFKVEDEGNLEYIIMARGTSDDVYMVGKLAAFQIQNLLVAYKERFDKDNFIKNLLLDNLLRVDMYTRAEKLHIETDVKRVVYIIETKHEKDTSALETVRTLFANKTRDFITAVDEKSIILVKEVKGNESYDELDKTADVIIDMLNTEAMSAAHVAYGTIVNDIREVSRSYKEAKMALDVGKIFYSNKNVVAYNRLGIGRLIYQLPIPLCQMFIKEIFEGKAPDDFDDETLSTINKFFENSLNVSETSRQLYIHRNTLVYRLDKIQKITGLDLRVFDDAITFKIALMVVKYMKYMESKDTF” here?
Answer: Its value is “not soluble”.
